Data from patent publication US20100015650.

T1: BRB1 tyrosine kinase substrate peptide
T1 chain: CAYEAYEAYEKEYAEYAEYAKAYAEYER


Target: T1, BRB1 tyrosine kinase substrate peptide

Protein	Signal to Noise ratio with BRB1 Peptide (TR-FRET kinase assay; kinase 0.5 nM)	further results
DDR1 (protein) RRLLSKAERRVLEEELTVHLSVPGDTILINNRPGPREPPPYQEPRPRGNPPHSAPCVPNGSALLLSNPAYRLLLATYARPPRGPGPPTPAWAKPTNTQAYSGDYMEPEKPGAPLLPPPPQNSVPHYAEADIVTLQGVTGGNTYAVPALPPGAVGDGPPRVDFPRSRLRFKEKLGEGQFGEVHLCEVDSPQDLVSLDFPLNVRKGHPLLVAVKILRPDATKNARNDFLKEVKIMSRLKDPNIIRLLGVCVQDDPLCMITDYMENGDLNQFLSAHQLEDKAAEGAPGDGQAAQGPTISYPMLLHVAAQIASGMRYLATLNFVHRDLATRNCLVGENFTIKIADFGMSRNLYAGDYYRVQGRAVLPIRWMAWECILMGKFTTASDVWAFGVTLWEVLMLCRAQPFGQLTDEQVIENAGEFFRDQGRQVYLSRPPACPQGLYELMLRCWSRESEQRPPFSQLHRFLAEDALNTV	1	–
EphA3 (protein) RFCGYKSKHGADEKRLHFGNGHLKLPGLRTYVDPHTYEDPTQAVHEFAKELDATNISIDKVVGAGEFGEVCSGRLKLPSKKEISVAIKTLKVGYTEKQRRDFLGEASIMGQFDHPNIIRLEGVVTKSKPVMIVTEYMENGSLDSFLRKHDAQFTVIQLVGMLRGIASGMKYLSDMGYVHRDLAARNILINSNLVCKVSDFGLSRVLEDDPEAAYTTRGGKIPIRWTSPEAIAYRKFTSASDVWSYGIVLWEVMSYGERPYWEMSNQDVIKAVDEGYRLPPPMDCPAALYQLMLDCWQKDRNNRPKFEQIVSILDKLIRNPGSLKIITSAAARPSNLLLDQSNVDITTFRTTGDWLNGVWTAHCKEIFTGVEYSSCDTIAKISTDDMKKVGVTVVGPQKKIISSIKALETQSKNGPVPV	22.4	–
EphA5 (protein) SGSCCECGCGRASSLCAVAHPSLIWRCGYSKAKQDPEEEKMHFHNGHIKLPGVRTYIDPHTYEDPNQAVHEFAKEIEASCITIERVIGAGEFGEVCSGRLKLPGKRELPVAIKTLKVGYTEKQRRDFLGEASIMGQFDHPNIIHLEGVVTKSKPVMIVTEYMENGSLDTFLKKNDGQFTVIQLVGMLRGISAGMKYLSDMGYVHRDLAARNILINSNLVCKVSDFGLSRVLEDDPEAAYTTRGGKIPIRWTAPEAIAFRKFTSASDVWSYGIVMWEVVSYGERPYWEMTNQDVIKAVEEGYRLPSPMDCPAALYQLMLDCWQKERNSRPKFDEIVNMLDKLIRNPSSLKTLVNASCRVSNLLAEHSPLGSGAYRSVGEWLEAIKMGRYTEIFMENGYSSMDAVAQVTLEDLRRLGVTLVGHQKKIMNSLQEMKVQLVNGMVPL	–	Signal to Noise Ratio with BRB1 Peptide (TR-FRET kinase assay; kinase 1 nM): 35.5
DDR2 (protein) RQFWQKMLEKASRRMLDDEMTVSLSLPSDSSMFNNNRSSSPSEQGSNSTYDRIFPLRPDYQEPSRLIRKLPEFAPGEEESGCSGVVKPVQPSGPEGVPHYAEADIVNLQGVTGGNTYSVPAVTMDLLSGKDVAVEEFPRKLLTFKEKLGEGQFGEVHLCEVEGMEKFKDKDFALDVSANQPVLVAVKMLRADANKNARNDFLKEIKIMSRLKDPNIIHLLAVCITDDPLCMITEYMENGDLNQFLSRHEPPNSSSSDVRTVSYTNLKFMATQIASGMKYLSSLNFVHRDLATRNCLVGKNYTIKIADFGMSRNLYSGDYYRIQGRAVLPIRWMSWESILLGKFTTASDVWAFGVTLWETFTFCQEQPYSQLSDEQVIENTGEFFRDQGRQTYLPQPAICPDSVYKLMLSCWRRDTKNRPSFQEIHLLLLQQGDE	1	–
ACK (protein) GEGPLQSLTCLIGEKDLRLLEKLGDGSFGVVRRGEWDAPSGKTVSVAVKCLKPDVLSQPEAMDDFIREVNAMHSLDHRNLIRLYGVVLTPPMKMVTELAPLGSLLDRLRKHQGHFLLGTLSRYAVQVAEGMGYLESKRFIHRDLAARNLLLATRDLVKIGDFGLMRALPQNDDHYVMQEHRKVPFAWCAPESLKTRTFSHASDTWMFGVTLWEMFTYGQEPWIGLNGSQILHKIDKEGERLPRPEDCPQDIYNVMVQCWAHKPEDRPTFVALRDFLLEAQPTDMRALQDFEEPDKLHIQMNDVITVIEGRAENYWWRGQNTRTLCVGPFPRNVVTSVAGLSAQDISQPLQNSFIHTGHGDSDPRHCW	–	Signal to Noise Ratio with BRB1 Peptide (TR-FRET kinase assay; kinase 20 nM): 17.3
EphA6 (protein) TGRCQWYIKAKMKSEEKRRNHLQNGHLRFPGIKTYIDPDTYEDPSLAVHEFAKEIDPSRIRIERVIGAGEFGEVCSGRLKTPGKREIPVAIKTLKGGHMDRQRRDFLREASIMGQFDHPNIIRLEGVVTKRSFPAIGVEAFCPSFLRAGFLNSIQAPHPVPGGGSLPPRIPAGRPVMIVVEYMENGSLDSFLRKHDGHFTVIQLVGMLRGIASGMKYLSDMGYVHRDLAARNILVNSNLVCKVSDFGLSRVLEDDPEAAYTTTGGKIPIRWTAPEAIAYRKFSSASDAWSYGIVMWEVMSYGERPYWEMSNQDVILSIEEGYRLPAPMGCPASLHQLMLHCWQKERNHRPKFTDIVSFLDKLIRNPSALHTLVEDILVMPESPGEVPEYPLFVTVGDWLDSIKMGQYKNNFVAAGFTTFDLISRMSIDDIRRIGVILIGHQRRIVSSIQTLRLHMMHIQEKGFHV	5.4	–
EphA1 (protein) RSRRAQRQRQQRQRDRATDVDREDKLWLKPYVDLQAYEDPAQGALDFTRELDPAWLMVDTVIGEGEFGEVYRGTLRLPSQDCKTVAIKTLKDTSPGGQWWNFLREATIMGQFSHPHILHLEGVVTKRKPIMIITEFMENGALDAFLREREDQLVPGQLVAMLQGIASGMNYLSNHNYVHRDLAARNILVNQNLCCKVSDFGLTRLLDDFDGTYETQGGKIPIRWTAPEAIAHRIFTTASDVWSFGIVMWEVLSFGDKPYGEMSNQEVMKSIEDGYRLPPPVDCPAPLYELMKNCWAYDRARRPHFQKLQAHLEQLLANPHSLRTIANFDPRMTLRLPSLSGSDGIPYRTVSEWLESIRMKRYILHFHSAGLDTMECVLELTAEDLTQMGITLPGHQKRILCSIQGFKD	10.8	–
EphB1 (protein) SRKRAYSKEAVYSDKLQHYSTGRGSPGMKIYIDPFTYEDPNEAVREFAKEIDVSFVKIEEVIGAGEFGEVYKGRLKLPGKREIYVAIKTLKAGYSEKQRRDFLSEASIMGQFDHPNIIRLEGVVTKSRPVMIITEFMENGALDSFLRQNDGQFTVIQLVGMLRGIAAGMKYLAEMNYVHRDLAARNILVNSNLVCKVSDFGLSRYLQDDTSDPTYTSSLGGKIPVRWTAPEAIAYRKFTSASDVWSYGIVMWEVMSFGERPYWDMSNQDVINAIEQDYRLPPPMDCPAALHQLMLDCWQKDRNSRPRFAEIVNTLDKMIRNPASLKTVATITAVPSQPLLDRSIPDFTAFTTVDDWLSAIKMVQYRDSFLTAGFTSLQLVTQMTSEDLLRIGITLAGHQKKILNSIHSMRVQISQSPTAMA	29.9	–
EphA2 (protein) HRRRKNQRARQSPEDVYFSKSEQLKPLKTYVDPHTYEDPNQAVLKFTTEIHPSCVTRQKVIGAGEFGEVYKGMLKTSSGKKEVPVAIKTLKAGYTEKQRVDFLGEAGIMGQFSHHNIIRLEGVISKYKPMMIITEYMENGALDKFLREKDGEFSVLQLVGMLRGIAAGMKYLANMNYVHRDLAARNILVNSNLVCKVSDFGLSRVLEDDPEATYTTSGGKIPIRWTAPEAISYRKFTSASDVWSFGIVMWEVMTYGERPYWELSNHEVMKAINDGFRLPTPMDCPSAIYQLMMQCWQQERARRPKFADIVSILDKLIRAPDSLKTLADFDPRVSIRLPSTSGSEGVPFRTVSEWLESIKMQQYTEHFMAAGYTAIEKVVQMTNDDIKRIGVRLPGHQKRIAYSLLGLKDQVNTVGIPI	–	Signal to Noise ratio with BRB1 Peptide (TR-FRET kinase assay; kinase 0.25 nM): 26.9
AXL (protein) HRRKKETRYGEVFEPTVERGELVVRYRVRKSYSRRTTEATLNSLGISEELKEKLRDVMVDRHKVALGKTLGEGEFGAVMEGQLNQDDSILKVAVKTMKIAICTRSELEDFLSEAVCMKEFDHPNVMRLIGVCFQGSERESFPAPVVILPFMKHGDLHSFLLYSRLGDQPVYLPTQMLVKFMADIASGMEYLSTKRFIHRDLAARNCMLNENMSVCVADFGLSKKIYNGDYYRQGRIAKMPVKWIAIESLADRVYTSKSDVWSFGVTMWEIATRGQTPYPGVENSEIYDYLRQGNRLKQPADCLDGLYALMSRCWELNPQDRPSFTELREDLENTLKALPPAQEPDEILYVNMDEGGGYPEPPGAAGGADPPTQPDPKDSCSCLTAAEVHPAGRYVLCPSTTPSPAQPADRGSPAAPGQEDGA	–	Signal to Noise ratio with BRB1 Peptide (TR-FRET kinase assay; kinase 4 nM): 1.8
ALK (protein) VYRRKHQELQAMQMELQSPEYKLSKLRTSTIMTDYNPNYCFAGKTSSISDLKEVPRKNITLIRGLGHGAFGEVYEGQVSGMPNDPSPLQVAVKTLPEVCSEQDELDFLMEALIISKFNHQNIVRCIGVSLQSLPRFILLELMAGGDLKSFLRETRPRPSQPSSLAMLDLLHVARDIACGCQYLEENHFIHRDIAARNCLLTCPGPGRVAKIGDFGMARDIYRASYYRKGGCAMLPVKWMPPEAFMEGIFTSKTDTWSFGVLLWEIFSLGYMPYPSKSNQEVLEFVTSGGRMDPPKNCPGPVYRIMTQCWQHQPEDRPNFAIILERIEYCTQDPDVINTALPIEYGPLVEEEEKVPVRPKDPEGVPPLLVSQQAKREEERSPAAPPPLPTTSSGKAAKKPTAAEISVRVPRGPAVEGGHVNMAFSQSNPPSELHKVHGSRNKPTSLWNPTYGSWFTEKPTKKNNPIAKKEPHDRGNLGLEGSCTVPPNVATGRLPGASLLLEPSSLTANMKEVPLFRLRHFPCGNVNYGYQQQGLPLEAATAPGAGHYEDTILKSKNSMNQPGP	–	Signal to Noise ratio with BRB1 Peptide (TR-FRET kinase assay; kinase 4 nM): 8.8
EphA8 (protein) KKRHCGYSKAFQDSDEEKMHYQNGQAPPPVFLPLHHPPGKLPEPQFYAEPHTYEEPGRAGRSFTREIEASRIHIEKIIGSGDSGEVCYGRLRVPGQRDVPVAIKALKAGYTERQRRDFLSEASIMGQFDHPNIIRLEGVVTRGRLAMIVTEYMENGSLDTFLRTHDGQFTIMQLVGMLRGVGAGMRYLSDLGYVHRDLAARNVLVDSNLVCKVSDFGLSRVLEDDPDAAYTTTGGKIPIRWTAPEAIAFRTFSSASDVWSFGVVMWEVLAYGERPYWNMTNRDVISSVEEGYRLPAPMGCPHALHQLMLDCWHKDRAQRPRFSQIVSVLDALIRSPESLRATATVSRCPPPAFVRSCFDLRGGSGGGGGLTVGDWLDSIRMGRYRDHFAAGGYSSLGMVLRMNAQDVRALGITLMGHQKKILGSIQTMRAQLTSTQGPRRHL	–	Signal to Noise ratio with BRB1 Peptide (TR-FRET kinase assay; kinase 0.25 nM): 32.3
